From patent CN117999282A (GAMMADELTA THERAPEUTICS LTD, dated 2024)
Values belong to the binder of their own block, whether it stands above or below them.

How the values were obtained:
[1] = biological target: human Vδ1 γδ T cell receptor on cells (skin-, blood- or tumour-derived Vδ1 γδ T cells) (human); assay: cell-based or functional assay
recombinant human OX40 = biological target: T1, recombinant human OX40 (human, UniProt P43489 29-216); assay: SPR, OX40 fixed on carboxymethyl dextran chip, bispecific 100nM, then Vδ1 heterodimer 100nM
T1 construct: also called 重组OX40; 人OX40
T1 sequence (looked up): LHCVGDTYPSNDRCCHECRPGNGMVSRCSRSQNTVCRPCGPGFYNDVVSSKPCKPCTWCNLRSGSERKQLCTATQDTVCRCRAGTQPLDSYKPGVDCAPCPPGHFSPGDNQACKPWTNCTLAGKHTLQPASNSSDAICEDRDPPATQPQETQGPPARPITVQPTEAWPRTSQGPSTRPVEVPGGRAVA

recombinant human PD-1 = biological target: T2, recombinant human PD-1 (human, UniProt Q15116 25-167); assay: SPR, PD-1 fixed on carboxymethyl dextran chip, bispecific 100nM, then Vδ1 heterodimer 100nM
T2 construct: also called 重组PD-1; 人PD-1
T2 sequence (Q15116 25-167 limits assumed): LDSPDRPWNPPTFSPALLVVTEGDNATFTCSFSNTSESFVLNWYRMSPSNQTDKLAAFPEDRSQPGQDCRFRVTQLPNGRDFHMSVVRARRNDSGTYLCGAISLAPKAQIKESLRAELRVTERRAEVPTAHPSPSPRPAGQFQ

Chain of human Vδ1 γδ T cell receptor on cells (skin-, blood- or tumour-derived Vδ1 γδ T cells) (human) (A0A1B0GX56 22-115, stated change not applied): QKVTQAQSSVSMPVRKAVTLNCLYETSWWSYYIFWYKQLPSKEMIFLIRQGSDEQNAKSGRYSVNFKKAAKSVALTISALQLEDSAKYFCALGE

- TCR下调 IC50 (soluble assay) [1]: 38.3 nM
B1: ADT1-4 (parent antibody) (antibody, IgG1, V domains shown)
VH: QVQLQQSGPGLVKPSQTLSLTCAISGDSVSSKSAAWNWIRQSPSRGLEWLGRTYYRSKWSTDYAASVKSRITINPDTSKNQLSLQLNSVTPEDTAVYYCARTWSGYVDVWGQGTLVTVSS
VL: DIQMTQSPPALSASVGDRVTITCRASQDINDWLAWYQHKPGKAPKLLIYDASSLESGVPSRFSGSGSGTEFTLTISSLQPDDFATYYCQQSYSTPQVTFGQGTRLEIK

- binding result (recombinant human OX40): binds
B2: 抗Vδ1×OX40双特异性抗体 (ADT1-4-2×珀伽利珠单抗) (bispecific antibody, human IgG1, kappa)
chain 1: DIQMTQSPPALSASVGDRVTITCRASQDINDWLAWYQHKPGKAPKLLIYDASSLESGVPLRFSGSGSGTEFTLTISSLQPDDFATYYCQQKYSAPQVTFGQGTRLEIKRTVAAPSVFIFPPSDEQLKSGTASVVCLLNNFYPREAKVQWKVDNALQSGNSQESVTEQDSKDSTYSLSSTLTLSKADYEKHKVYACEVTHQGLSSPVTKSFNRGEC
chain 2: not shown
notes: also called 抗Vδ1×抗OX40

- binding result (recombinant human PD-1): binds
B3: 抗Vδ1×PD-1双特异性抗体 (ADT1-4-2×帕博利珠单抗) (bispecific antibody, human IgG1, kappa)
chain 1: EIVLTQSPATLSLSPGERATLSCRASKGVSTSGYSYLHWYQQKPGQAPRLLIYLASYLESGVPARFSGSGSGTDFTLTISSLEPEDFAVYYCQHSRDLPLTFGGGTKVEIKRTVAAPSVFIFPPSDEQLKSGTASVVCLLNNFYPREAKVQWKVDNALQSGNSQESVTEQDSKDSTYSLSSTLTLSKADYEKHKVYACEVTHQGLSSPVTKSFNRGEC
chain 2: not shown
notes: also called 抗Vδ1×抗PD-1
